Laboratory results taken from the DeepSol protein solubility set.

Experiment: soluble on expression in E. coli; label from the status in PepcDB or PDB records

| Sequence | soluble on expression in E. coli |
| --- | --- |
| GPGSMFSGSEGSVRTDDTNVEPPPIPKTRGPLLFEGVRLAGGPPRRTPKRSCSRYFSVTRKTTSAGTDECEHAPPGFSLVNTPSTQDVSPSAKMELPCSAAAHYDDDDDDDDIIPSTAPLPTPHPVMHRVLATGQPNGVSRLLPFDEYVVEEVTPRKCSSISADTSGAAPSTPQGTELREVTQVEEQSPLPAVPEMCESPTRFTLGPRLPVNGEKVRMDFYFLQQEVDAWAKPIETTADVEWHKQHLQETRVAMRSLLHELEVLIAREAAEHERLCIARGFSAMESTSDGKCTYAGETDVVSKTRGKEWKQEELETLEAWRVEKGALLAQKSKLLREHQELQYRLRSHLSGSATGRVTPSPNTSVSRSNKSRGDEGNIGGMSTPLDNGVAQLRLEISEMNAKLKKLEDAYKVLHDNQQWRQGEFDDEYGALCRALATATAGEINNRTALQDTIREAEGVRANCLRQGDASLVSLMERGLSEAKAALKCHDTEQYETK | not soluble |
| MGSDKIHHHHHHMNNFNNEIKLILQQYLEKFEAHYERVLQDDQYIEALETLMDDYSEFILNPIYEQQFNAWRDVEEKAQLIKSLQYITAQCVKQVEVIRARRLLDGQASTTGYFDNIEHCIDEEFGQCSIASNDKLLLVGSGAYPMTLIQVAKETGASVIGIDIDPQAVDLGRRIVNVLAPNEDITITDQKVSELKDIKDVTHIIFSSTIPLKYSILEELYDLTNENVVVAMRFGDGIKAIFNYPSQETAEDKWQCVNKHMRPQQIFDIALYKKAAIKVGITDV | not soluble |
| MGSDKIHHHHHHMKIAIITDGSVEMGMGHVYRTLSLANELRKFNVNEIIFFTKSDEDVIKKIEENGFKVIKCSDNNDILKNIKNIKPDVVIIDDLGIEEDFAKNIRELCKKLIFFDNPNPSSNKYADIVVNAIVGSELKNRKYFDEENKTLYFYGPKYLILRNEFYKVKKEMLSRSKNKETKNILIAFGGSDPSNLTCKVLEELLSKDRDFNINVVLGPKFQYEDELNNLLKRYSKSDKIKIYKNIDNMAELMKDNDLIITSPGMTMFEALFLGIPVVVLYQNELQRECYDDYLKKISKTHLNPLKEGYFIDAEHTDLHIGKGKFEIIEAITNIYNCKKIGEDSKIIIRQITDNDLELLMAWRSNPLIYKFFYIQKEPLKWEEHYSWWMSRENRVDWIILLRENNTIRKVGSVNVSQLNTDNPEIGILIGEFFLWGKHIGRHSVSLVLKWLKNIGYKKAHARILENNIRSIKLFESLGFKKTKKGRENEWIYEVNL | not soluble |
| MDIFSGLFTQVNNNNEEDLRVELQNMKPGEGVIRAEVGPSGVATFKKYFLQDGKLQFEIVKHPI | not soluble |
| MGSDKIHHHHHHMNRMAGCINDHLKRYGGLAAGREDEQKRYFAEKRLYALQIETTDACQQGCIFCYAGSTPREHHGLTSDEIRGLLRDAAALEIRAIDWLGGDPLVRPDWYELMQYARSLGLVNNVWTSGLPLKSKEVAARVHEVSEGGFVSVHVDSITPEVYAKLHRGGNPHFIEAIVEGVDNLLALGKPADMMINCITYTSLQGPEDAIKTMRWWFCEKGLRTCLTMFNPAGMGAEWRSLEPQLDEVQRVYTERDRIDYGGDNISIAAMDTDKYYCGTMATVTFTGDVTPCSVIREGVANIRTTPFRDIVARHLDTLVHAALHDVQNLPNPCNDCVNNAHCWGCRASAYHYSGDADGLDPKCWLIRTALTSDSFSVNNNLQKSTDEEIGLKP | not soluble |
| MSGLQGKIADAVKARGYQIMTSPDKAYYWIQANVLKADKMDLRESQGWLSRGYEGAAVGAALGGGITAYNTGSAGTTLGVGLATGLIGMAADAMVEDINYTMITDVQIAERTRTSVRTDNVAALRQGTSGSKIQTSTETGNQHKYQTRVVSSANQVNLKFEEAKPHLEDQLAKSIANIL | not soluble |
| MGSDKIHHHHHHMGDRLYFERFIWFDSQIRNGCYPNASALARKFEFDIKTAQRSIEYFRDRLGAPLDYDASRRGYRYYDPNYQLPVTHLSESELVALLASRKLLTDAAAGPLGDELEKVSNRLGALLSNGLKGKINPERAFSFRWNGMAASDPVIFEQAVSALLSCRLLTFCYYSPLAGACTARTVEPHHMINYMGAWHLIAWCRLRNDWRDFHLARVSLAHLEEEIFSPRDETTWRPCLDETFGIFQNRERFDVTIRFSADRARWVREELWHQDQSTRDLDTGEVELTIPVSHEAEILMEVLKHGSHAEVMEPIWLRDRIREEIGKMQKKY | not soluble |
| SAAATEHNRPSSGDRNLERRCSPNLSREVLYEIFRSLHTLVGQLDLRDDVVKITIDWNKLQSLSAFQPALLFSALEQHILYLQPFLAKLQSPIKEENTTAVEEIGRTEMGNKNEVNDKFSIGDLQEEEKHKESDLRDVKKTQIHFDPEVVQIKAGKAEIDRRISAFIERKQAEINENNVREFCNVIDCNQENSCARTDAIFTPYPGFKSHVKVSRVVYTYGPQTRPEGIPGSGHKPNSMLRDCGNQAVEERLQNIEAHLRLQTGGPVPRDIYQRIKKLEDKILELEGISPEYFQSVSFSGKRRKVQPPQQNYSLAELDEKISALKQALLRKSREAESMATHHLP | not soluble |
| MKRIADEELVREERAEESTQKWLQDAKFQEILGADSSHKSLFVLLSHPDGSQGILLANKSPFSEEKSDIEKLLATAQLQEISRNDIFGSYNIEIDPKLNLLKSQLIYPINDRLIAKYRQEEKFVIRETPELYETVTRPYIEKYQLNLNWVYNCLEKRSEVDKIVFEDPDNENGFVLLQDIKWDGKTLENLYVLAICHRHGLKSVRDLTGDDLEMLYNMRDKSLEAINQKYGLKTDQIKCYFHYQPSFYHLHVHFINLKYDAPASTTMSAILLDDVINNLELNPEHYKKSTLTFTRKNGDKLMEMFREALKN | not soluble |
| MAHHHHHHMSSHALSSGSAPNVSSATTGTVAQQADSLTRNLLLGIPKEGLSPDSPEAADLQAAEAFVSDIQQEILAYDIANAKAIELYAVRWWSAVPFFGRHAKRALAAESTAAAAAAAGETHESTEAAAAAVAVDGSANSSEGHGLRLSPEEAAAALQSGGAYLHRQTSQTPRGFKVERTSALDPGQLSQLAGGASGASESKAVPVPKVNTWLFRRQHPSWVPLMQRWWVPWLCCGSIVLIWTPDVWKLRTLYFCDHQYALLRQSIHKAYWWATMRPEDYAEHIAAIAAERPSRVRGTSCPFE | not soluble |
| MFKKLFGLGSKTNEETIVAPLTGAVKNIEEVPDPVFAGRMMGDGVAIDPTEGVVVSPVDGEIVQLFHTKHAIGIKAKNGTEILIHVGLETVKMEGEGFEAHVSEGQAVKAGDKLISFDLELIREKAKSTITPIVITNTDAAESIKTTVGVTATKGSTEVMKVTMK | not soluble |
| MSLNVQGNLFRPLTLPNGLSLENRFVLSPMVTNSSTSEGFVTDDDIAYAVRRAKSAPLQITGAAYITEYGQLFEYGFSVSKDEDIPGLTKLAKAMKSKGAKAVLQLTHAGRFSSHTLARHGYVYGPSPMQLQSPYPHQVKELTHKDILRIIDEYVQATRRAIQAGFDGVEISSAQRLLIQTFFSTFSNQRKDEYGPQTLTNRCRLGLEVFKAVQKVIREEAESDFILGFRATPEETRGSQIGYSIEEFMEFLEKILAIAQVDYLAIASWGHDVFRNTIRSEGVYKGQLVNQVIFEHFGDRVPIMATGGINSASKVFEALQHAHMIGASTPLVVDPEFLQKIKAKCSDQINLRIKVSDLEGLAIPKASFKDIVPLMDYGESEGHHHHHH | soluble |
| MSLKRVLLLGGAGFIGYHLGRHLVERSDCRVTLVDNFFRSKQDEELDTLLQSSAVDIVEGDLTERSTFDQLDDEYDHVYALAAVVGVGYTEDMPEEVWRINTAITLNTFEWLRESSVSRVLFASTSETYAGTVEEFGAEIPTPEDVPLSITDITQPRFTYAVTKMLGEAGIAHYAQAYDFEQVTVRFHNVYGPRMGFKHVIPQVVERFHEAEDPFTVYGYDQTRAFCHVDDAVRGVVQAMETPEAAGRTYHIGDDRHEITIETLIRYIGDLMDFHGEYEQGPSHAGSVSRRCPDVDRAREVFGYEPQVHWKEGVRETVEWYADYYRSGREVFEEGHHHHHH | soluble |
| SLKTIDMKYLRLLAKEYPTIAKTATEIINLEAIMNLPKGTEHFLSDVHGEYSAFEQVLRNGSGVVKRKIRDIFGAELDDAEINSLSTLIYYPEEKMDLLASETEDLQAWYRTTLFRLIELCQYVASKYTRSKVRKAMPEDFAYILEELLHENYNEDDKKLYYEEILQHIISLGRAEEFISALSLLIQQLVVDHLHIVGDVYDRGPYPDKIMDTLMNYHSLDFQWGNHDILWMGAASGSRVCAANVIRISARYLNLDILEDSYGISLRPLALFADEVYKDDPCTYFQPKNEENINYSNAEITQIARMHKAISIIQFKLEGEIINRRKEFDMDHRLLLQFIDYKKGTIHLKGKEYLLLDSHFPTINPEKPYELTDAERELIGKITAAFKNCRRLQKHVQFLYSKGSMFLTYNGNLLYHGCIPLHEDGTFMEMKLRGEKYAGRSLLEQFEILTREAYVRPTGTKEKKYACDIVWYLWTGAISSLFGKSEMTTFERYFVAEKETHTEEKNPYYKLRNNELICKQILEEFGLDGECGHIINGHTPVKEGKGESPIKANGKMLVIDGGFAKAYHKETNLAGYTLLFNSYGLQLVSHQPFTTKEDAIKNETDILSTRQVIEMEINRKRVRDTDIGAKLSEQAEDLKLLLDAYRNGLLHENR | soluble |
| MTICRPGKGHLMIQFDAVHKRFPNGTTAVHDLSLEMPEGGVTVLVGSSGCGKTTTLRMINRMVDPTSGTIRVGGRDILEQDAAELRRSIGYVIQQSGLFPHRTVLDNIATVPLLLGWGRRKARARAAELLDTVGLAADAGRRYPHQLSGGQQQRVGVARALAADPPVLLMDEPFGAVDPVVRTQLQDELLRLQKELSKTIVFVTHDIDEAVRLGDQIAVFRTGGHLVQCASPAELLARPADDFVADFLGAERGLKLLSLTTLADVPQGPAPEGGAWTLVLDEARRPQHWRSKDGAELPVRPLRDRDSLLAALNESVASPNGLTVRVDADGVLTGVSSRDDIHEHAGRAHSEASVAALEHHHHHH | not soluble |
| KLEYRISYDDEKEIKAIVFIIGGYGANANIYFLDSYRNYIAKNFDVVAVHVFYHCFCQRRSDVEKYSAYKYFQEEDIENIKNLLNQFHFSYGEINNDNALFLANSLVKHVENLKMQNKLDHNFKLNFTSTFIPPNGDYQNYGIMAAIDHINALKDLVKRFPKFADLPK | not soluble |
| MMKIIAFVGMPASGKSEASRIAAEMGIPVIIMGDVIRKEVLKRGLEPNDSNTGMVATDLRKHEGMGAVARRCISQIRETGSELVVVDGVRGIAEVECFRKEFGKGFILISIYAPIEVRFSRVQKRGRSDDMNSIEGLRHRDERELSWGMGEAIDASNVEIENNFTLETFRKDVRDVLSNYLEADLEK | not soluble |
| KGPNLTEISKKITESNAVVLAVKEVETLLTSIDELAKAIGKKIKSDVSLDNEADHNGSLMSGAYLISTLITKKISAIKDSGELKAEIEKAKKCSEEFTAKLKGEHTDLGKEGVTDDNAKKAILKTNNDKTKGADELEKLFESVKNLSKAAKEMLTNSVKELTSP | soluble |
| MPLDSPAKLEFPLHWAVYVDCKDELNELLKNKSTLEIDKIDPRGRTPLMLAVTLQHFDCARLLMDAGADASIPNKEMWSVSNEAVAQGNEQFIQEVIHHRDYQRANRGAHAMKRSLEKLAEVPDFFCEMNWDFSSWVPFLSQACPSDCHKIYKRGSSVRIDTTLVSFEGASWVRGNQSYIFRLSRNGYAEFIVLDHDERIAAVQELRDDDIFNEYRPLPSALDDRLRNTISTTYIDVENIGFERTSRGFLSWFSSGETNETVDGYDCKVLNASNVHLVTKRRFDHLSSEARARLAQEEASESKAVTSFKKMMSTNKTDENTTRDLYEEGLSPDSYLDPHYEFDTGCDIGKRREVVKKSNAFQATLWMADEYPLNLHDQIIPIVELMAVNSPHFARLHNFIRLQLPAGFPVKIEIPLFHIVSARIAFQNINSPGKHVTPIDNQNVDIEEEAFEIPDGYAIDDDGRYGITWEDDDDRNNRNNRNQVANGNTSRRGLGNNYSDDMLLQYAIQQSLLESTARQPSRVQEEEYVDILEQIESVPVNPETDFYRAIRDSQVEEDRRRREDEQYEEDLRKVLELSKAEQ | not soluble |
